This is an account of results in patent US20230331811A1 (CCOA THERAPEUTICS, published 2023).

Assay [1] deals with T1, Recombinant human ectodomain αIIbβ3, activated (high-affinity ligand binding conformation) (human, UniProt P08514 32-993; P05106 27-718, carboxyl groups coupled to the DETA silane layer by EDC/sulfo-NHS).
T1 construct: Also used here for the ELISA plate coated in a buffer with the same cations
Put plainly: flow cytometry dose-response of Alexa488-fibrinogen on activated αIIbβ3 beads, DETA signal subtracted, one site specific binding fit. On the procedure:
3 μL of 1×10⁸ beads/mL were mixed with the desired concentration of fluorescently labelled antibody or ligand to a final volume of 100 μL in PBS and incubated for 1 h. Following incubation, the samples were diluted to a final volume of 1 mL and flow cytometrically analyzed. Samples that were compared with one another were run on the same instrument under the same instrumental conditions (signal gain, flow rate etc.). Any differences in absolute mean fluorescence intensity (MFI) value between different experiments was due to variance between the two.
αIIbβ3 Coupled Bead Flow Cytometry Analysis. […] Ferromagnetic silica particles at each stage of the coating fabrication process were analyzed with flow cytometry for binding to (FIGS. 2A and 2B) PSI E1, and (FIG. 2C to 2F) fibrinogen. […] After the activation step, the beads were analyzed with flow cytometry for binding of Alexa488™ labelled fibrinogen (native αIIbβ3 ligand) and PAC-1 (an antibody specific for the active upright conformation of αIIbβ3) (See Table 2, FIGS. 2G to 2I). […] All analyses conducted as n≥3, data presented as mean±SD, analyzed with a two-tailed t-test, ns=not significant *P<0.05, **P<0.01, ***P<0.001 and ****P<0.0001.
For orientation: A flow cytometer gives signals particle by particle.

For assay [2], the target named is T1, Recombinant human ectodomain αIIbβ3, …. The assay is described as follows: sandwich ELISA, αIIbβ3 coated on a 96-well plate in a buffer with Mg2+, Mn2+ and Ca2+ (anti-fibrinogen mouse IgG, anti-mouse IgG-HRP). The protocol:
Fibrinogen ELISA Assay. To ensure similar immobilization levels of recombinant human ectodomain aIIbβ3 between the ELISA plate and integrin coupled magnetic beads, the wells of a 96-well micro plate (Nunc MaxiSorp) were incubated with the same aIIbβ3 concentration per surface area as during the preparation of the magnetic beads, 6.6×10⁴ μg·mL⁻¹·c⁻². Each well was coated with aIIbβ3 or control proteins (BSA and β3−/− platelet lysate) by incubation of 6 μg/μL protein in binding buffer (TRIS buffered saline with 0.05% TWEEN-20 and 1 mM each of MgCl₂, MnCl₂ and CaCl₂)) at 4° C. overnight. Incubation of 3% skim milk (ED Millipore) and 2% TWEEN-20 for 1 hour at 37° C. was used for blocking. The concentration of aIIbβ3 per surface area of bead used when coating SAM coated beads is 6.6×10⁴ μg·mL⁻¹·cm⁻², therefore the wells of 96 well plates used were coated with the same density EDC/NHS quenching achieved by increase pH to 8.6. Bead concentration for synthesis: 6×10⁹ beads·mL⁻¹; Integrin-bead reaction concentration=250 μg·mL⁻¹; Integrin Used=6.6×10⁴ μg·mL⁻¹·cm⁻²; Well Surface Area (50 μL)=0.93 cm²; Concentration/wee for ELISA=6×10⁴ μg·mL⁻¹ (6 μL/well in 50 μL total volume); Stock [αIIbβ3]=5×10⁵ μg·mL⁻¹.
Fibrinogen binding. […] The OPD peroxidase reaction was stopped after 1 hour with 2 M H₂SO₄ and the absorbance was read at 492 nm. […]
(In general: ELISA stands for enzyme-linked immunosorbent assay.)

Assay [3] shares this target. The assay is described as follows: flow cytometry sandwich assay on αIIbβ3 coupled beads (anti-fibrinogen mouse IgG, FITC-labelled detection antibody), apparent Kd.

T1 sequence (P08514 other isoform, or with tags, fused parts or gaps limits assumed, chain 1 of 2): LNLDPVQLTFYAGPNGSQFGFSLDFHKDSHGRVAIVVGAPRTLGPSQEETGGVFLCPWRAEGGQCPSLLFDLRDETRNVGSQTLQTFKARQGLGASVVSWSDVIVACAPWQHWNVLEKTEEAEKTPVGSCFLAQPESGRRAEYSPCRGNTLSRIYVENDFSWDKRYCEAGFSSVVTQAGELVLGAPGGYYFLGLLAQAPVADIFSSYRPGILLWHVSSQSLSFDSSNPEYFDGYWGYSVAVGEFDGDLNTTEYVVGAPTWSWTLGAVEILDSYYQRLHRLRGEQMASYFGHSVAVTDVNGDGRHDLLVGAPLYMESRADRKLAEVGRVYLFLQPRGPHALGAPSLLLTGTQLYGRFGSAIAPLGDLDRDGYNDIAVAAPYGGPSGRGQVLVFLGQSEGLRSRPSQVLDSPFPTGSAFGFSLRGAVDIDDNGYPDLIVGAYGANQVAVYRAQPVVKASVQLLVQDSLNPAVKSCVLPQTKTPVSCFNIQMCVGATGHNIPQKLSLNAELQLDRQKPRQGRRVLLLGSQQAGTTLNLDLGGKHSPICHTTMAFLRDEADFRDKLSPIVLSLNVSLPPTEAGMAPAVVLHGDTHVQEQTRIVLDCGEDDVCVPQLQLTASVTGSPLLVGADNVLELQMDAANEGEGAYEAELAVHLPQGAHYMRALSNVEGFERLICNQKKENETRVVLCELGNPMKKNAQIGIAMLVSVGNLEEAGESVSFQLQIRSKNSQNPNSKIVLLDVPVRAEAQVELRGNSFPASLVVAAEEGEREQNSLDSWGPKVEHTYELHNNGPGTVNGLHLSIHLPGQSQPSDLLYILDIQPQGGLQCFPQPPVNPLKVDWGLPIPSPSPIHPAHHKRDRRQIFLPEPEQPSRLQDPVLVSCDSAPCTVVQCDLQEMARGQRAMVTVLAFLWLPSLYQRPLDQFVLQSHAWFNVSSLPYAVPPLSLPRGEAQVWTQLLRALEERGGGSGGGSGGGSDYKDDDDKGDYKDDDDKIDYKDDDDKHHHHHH
T1 sequence (P05106 other isoform, or with tags, fused parts or gaps limits assumed, chain 2 of 2): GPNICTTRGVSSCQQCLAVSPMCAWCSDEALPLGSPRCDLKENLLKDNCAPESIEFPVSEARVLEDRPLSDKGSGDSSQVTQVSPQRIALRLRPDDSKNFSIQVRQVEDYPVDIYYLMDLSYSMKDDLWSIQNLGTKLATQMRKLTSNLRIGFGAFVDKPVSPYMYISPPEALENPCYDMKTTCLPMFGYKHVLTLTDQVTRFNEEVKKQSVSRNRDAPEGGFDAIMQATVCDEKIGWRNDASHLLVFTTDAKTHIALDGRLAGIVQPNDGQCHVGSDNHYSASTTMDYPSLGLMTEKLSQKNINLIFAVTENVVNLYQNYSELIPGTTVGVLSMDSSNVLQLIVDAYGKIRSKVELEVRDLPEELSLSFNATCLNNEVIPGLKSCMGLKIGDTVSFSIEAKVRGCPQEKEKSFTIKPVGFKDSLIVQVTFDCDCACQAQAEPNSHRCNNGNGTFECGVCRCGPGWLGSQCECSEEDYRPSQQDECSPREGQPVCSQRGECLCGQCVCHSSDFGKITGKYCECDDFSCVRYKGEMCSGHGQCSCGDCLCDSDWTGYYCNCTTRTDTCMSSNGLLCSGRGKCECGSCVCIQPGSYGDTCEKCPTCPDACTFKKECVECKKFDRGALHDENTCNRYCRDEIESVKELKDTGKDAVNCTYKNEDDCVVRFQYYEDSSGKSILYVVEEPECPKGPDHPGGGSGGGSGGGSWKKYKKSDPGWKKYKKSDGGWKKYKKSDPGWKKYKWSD

B1: Fibrinogen (ligand)
alpha: ADSGEGDFLAEGGGVRGPRVVERHQSACKDSDWPFCSDEDWNYKCPSGCRMKGLIDEVNQDFTNRINKLKNSLFEYQKNNKDSHSLTTNIMEILRGDFSSANNRDNTYNRVSEDLRSRIEVLKRKVIEKVQHIQLLQKNVRAQLVDMKRLEVDIDIKIRSCRGSCSRALAREVDLKDYEDQQKQLEQVIAKDLLPSRDRQHLPLIKMKPVPDLVPGNFKSQLQKVPPEWKALTDMPQMRMELERPGGNEITRGGSTSYGTGSETESPRNPSSAGSWNSGSSGPGSTGNRNPGSSGTGGTATWKPGSSGPGSTGSWNSGSSGTGSTGNQNPGSPRPGSTGTWNPGSSERGSAGHWTSESSVSGSTGQWHSESGSFRPDSPGSGNARPNNPDWGTFEEVSGNVSPGTRREYHTEKLVTSKGDKELRTGKEKVTSGSTTTTRRSCSKTVTKTVIGPDGHKEVTKEVVTSEDGSDCPEAMDLGTLSGIGTLDGFRHRHPDEAAFFDTASTGKTFPGFFSPMLGEFVSETESRGSESGIFTNTKESSSHHPGIAEFPSRGKSSSYSKQFTSSTSYNRGDSTFESKSYKMADEAGSEADHEGTHSTKRGHAKSRPVRGIHTSPLGKPSLSP
beta: QGVNDNEEGFFSARGHRPLDKKREEAPSLRPAPPPISGGGYRARPAKAAATQKKVERKAPDAGGCLHADPDLGVLCPTGCQLQEALLQQERPIRNSVDELNNNVEAVSQTSSSSFQYMYLLKDLWQKRQKQVKDNENVVNEYSSELEKHQLYIDETVNSNIPTNLRVLRSILENLRSKIQKLESDVSAQMEYCRTPCTVSCNIPVVSGKECEEIIRKGGETSEMYLIQPDSSVKPYRVYCDMNTENGGWTVIQNRQDGSVDFGRKWDPYKQGFGNVATNTDGKNYCGLPGEYWLGNDKISQLTRMGPTELLIEMEDWKGDKVKAHYGGFTVQNEANKYQISVNKYRGTAGNALMDGASQLMGENRTMTIHNGMFFSTYDRDNDGWLTSDPRKQCSKEDGGGWWYNRCHAANPNGRYYWGGQYTWDMAKHGTDDGVVWMNWKGSWYSMRKMSMKIRPFFPQQ
gamma: YVATRDNCCILDERFGSYCPTTCGIADFLSTYQTKVDKDLQSLEDILHQVENKTSEVKQLIKAIQLTYNPDESSKPNMIDAATLKSRKMLEEIMKYEASILTHDSSIRYLQEIYNSNNQKIVNLKEKVAQLEAQCQEPCKDTVQIHDITGKDCQDIANKGAKQSGLYFIKPLKANQQFLVYCEIDGSGNGWTVFQKRLDGSVDFKKNWIQYKEGFGHLSPTGTTEFWLGNEKIHLISTQSAIPYALRVELEDWNGRTSTADYAMFKVGPEADKYRLTYAYFAGGDAGDAFDGFDFGDDPSDKFFTSHNGMQFSTWDNDNDKFEGNCAEQDGSGWWMNKCHAGHLNGVYYQGGTYSKASTPNGYDNGIIWATWKTRWYSMKKTTMKIIPFNRLTIGEGQQHHLGGAKQAGDV
modifications: Alexa 488 dye on lysines (positions not stated) in the results at the 2nd table and paragraph 103; unlabelled in the sandwich assay of paragraph 112. The native protein is a disulfide-linked dimer of the three chains; each chain is given once.
notes: It calls the protein 'bivalent fibrinogen'; also called Fg; Alexa488 labelled fibrinogen
Take B1: the figures for the Kd in assay [1], in assay [2] and in assay [3] were 78 nM, 2200 nM and 210 nM, respectively.
